Assays:
[1] = molecular target: co-expressed 6×His-tagged Lpg2369–Lpg2370 (HipTLp–HipSLp) complex (Legionella pneumophila) (UniProt Q5ZSZ7); assay: ITC
[2] = molecular target: HipTLp (Lpg2370), 6×His-tagged, expressed alone (autophosphorylated, pHipTLp) (Legionella pneumophila) (UniProt Q5ZSZ6); assay: ITC
[3] = molecular target: pHipTLp (HipTLp, Lpg2370) (Legionella pneumophila, UniProt Q5ZSZ6); assay: biochemical

“HipBLp (Lpg2368) (from UniProt Q5ZSZ8 1-75) (natural protein)” gave a Kd [1] of 1500 nM.

Work on “HipSLp (Lpg2369), untagged wild type (6×His-tag cleaved with TEV protease) (from UniProt Q5ZSZ7 1-102) (natural protein)” yielded a Kd [2] of 42 nM.

With Nc1ncnc2c1ncn2[C@@H]1O[C@H](COP(=O)(O)OP(=O)(O)NP(=O)(O)O)[C@@H](O)[C@H]1O [AMP–PNP] the Kd [3] was ~70000 nM.

— publication PMC9325769 (Nature Communications, 2022)
